Target: EcoSSB (Escherichia coli, UniProt P0AGE0)
Assay: EMSA; Complex I at low and Complex II at high SSB; 0.2, 2, 10 pmol tetramer, 1 pmol DNA; 20 mM Tris-HCl pH 8.0, 50 mM NaCl, 5% glycerol, 50 μg/ml BSA, 15 μl, 30 min at 4°C; 8% native PAGE in 1x TBE
Conditions: protein: recombinant; chain copies: 4; label: 5' 32P; single strand

EcoSSB, sequence (P0AGE0 whole entry): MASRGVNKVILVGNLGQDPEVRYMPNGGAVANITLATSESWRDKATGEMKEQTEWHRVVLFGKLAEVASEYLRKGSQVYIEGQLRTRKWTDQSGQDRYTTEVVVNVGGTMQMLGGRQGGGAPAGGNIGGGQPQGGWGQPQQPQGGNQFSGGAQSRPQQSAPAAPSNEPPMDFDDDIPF

B1: 79 mer ssDNA (ssDNA)
DNA: GCACTAGTGCGGATAGCCCCGTGTTGTTGTCTGACCCCCGACCCCGACGGCAATGCGGGGCAATCCCCTGGAGGCCTGC
binding result: binds
